According to US20220162327A1, “ANTI-CCR5 AGENTS AND METHODS OF TREATMENT THAT BLOCK CANCER METASTASIS OR ENHANCE CELL DEATH INDUCED BY DNA DAMAGING CHEMOTHERAPY” (CytoDyn Inc., priority 2019, published 2022):
Entries after “also recorded” stand apart in the source; their conditions may differ. Read-outs that look alike come from different tables or passages of the source.

Experiments:
[1] = Phase Ib/II study, safety; type: in vivo; details: Subject 706-001, at Cycle 6 Day 1 visit, weekly leronlimab and carboplatin every three weeks
Text: (§1) The primary objective of Phase 1b is to determine the safety, tolerability and maximum tolerate dose (MTD) of PRO 140 in patients with TNBC, when combined with carboplatin to define a recommended Phase II dose of the combination. The primary objective of phase 2b is to evaluate the impact on progression-free survival (PFS) of the combination PRO 140 and carboplatin in patients with CCR5+ TNBC previously treated with anthracyclines and taxanes in neoadjuvant and adjuvant setting.
(§2) Each treatment cycle consisted of 21 days. […] This treatment regimen was used for all subjects enrolled in the mTNBC study, unless otherwise indicated.

[2] = biological target: CCR5 (Homo sapiens, UniProt P51681); assay: CCL5 induced calcium responses in MDA-MB-231-CCR5 cells (Fluo-4, living cell image); type: cell-based; set-up: expressed in transfected cells; host or cells: MDA-MB-231 human breast cancer cell line (MDA-MB-231-CCR5)
Text: FIG. 2A, FIG. 2B, FIG. 2C, and FIG. 2D. […] CCR5 activation induces calcium flux (Mueller et al., 2002; Petkovic et al., 2004). […] Fluo-4 was used as calcium concentration indicator. The CCR5 antagonist, vicriviroc, was used as positive control (FIGS. 2A and 2D).

[3] = system: CCR5+ metastatic Triple Negative Breast Cancer; assay: Phase Ib/II study, CTC/EMT/CAML assessment in blood (LifeTrac Assay); type: in vivo, human
Text: as §2
The blood sample for circulating tumor cells (CTC) and cancer associated macrophage-like cells (CAMLs) assessment was collected at baseline and subsequently at Day 1 of each treatment cycle to assess changes in CTCs and CAMLs after treatment and to perform correlative analysis between CCR5 expression and PD-L1 expression.
Creatv Microtech has developed a size based technology and detection methodology (LifeTrac Assay) that enables the collection and characterization of all cancer associated cells in the blood i.e., CTCs, epithelial mesenchymal transition cells (EMTs) and CAMLs.[Adams Cytometry 2015, Adams RSC 2014]. The CellSieve™ filtration platform is used to capture CAMLs and CTCs.

[4] = human, in vivo; cited from earlier work
[5] = system: breast cancer tumor model; assay: Breast cancer tumor model; type: in vivo
Text: C-C Chemokine receptor type-5 (CCR5) is selectively reexpressed on the surface of tumor cells during the dedifferentiation and transformation process (velasco-velazquez-2012).
Another cancer hallmark that CCR5 presents a potential role is the DNA repair pathways. This cancer characteristic attenuates apoptosis and contributes to chemotherapy resistance and tumor cells immortality. Studies have correlated the altered expression of C-C Chemokine Ligand type-5 (CCL5) with disease progression in patients with breast cancer [Luboshits, 1999] [Niwa, 2001] [Zhang, 2009].

[6] = system: MDA-MB-231 cells stable transfected with Luc2-GFP; assay: Mouse lung metastasis model, bioluminescence imaging; type: in vivo; details: mice, tail-vein injection, treated one day before injection
Protocol: FIG. 4A and FIG. 4B. Leronlimab block breast cancer metastasis in mice. […] MDA-MB-231 cells stable transfected with Luc2-GFP was injected into the mice through tail-vein. The mice in each group were treated one day before injection. The metastasis tumor formed in the lung was determined by bioluminescence imaging. […] The quantitative analysis of tumor size in each group was shown in (FIG. 4B). The size of tumors defined by photon flux (x10^8 p/sec/cm^2/sr).

[7] = system: CCR5+ metastatic Triple Negative Breast Cancer; assay: Phase Ib/II study, tumor imaging; type: in vivo, human
Text: as §1
The baseline target lesion was identified in the right upper lung at the size of 25 mm. The lesion was described as pleural based, major fissure, soft tissue density nodule in the right hilum.
as §2
Scans were taken at the end of every two cycles (every 6 weeks). The subject had Scan 1 after six weeks, a Scan 2 after 12 weeks, and Scan 3 after 18 weeks (Table 4).

[8] = Subject 706-001, C1D1, with carboplatin
[9] = Subject 706-001, C2D1, with carboplatin
[10] = Subject 706-001, C3D1, with carboplatin
[11] = Subject 706-001, C4D1, with carboplatin
[12] = Subject 706-001, C5D1, with carboplatin
[13] = Subject 706-001, C6D1, with carboplatin
[14] = second subject, after two weeks of treatment, with carboplatin
[15] = Subject 706-001, scan 3, with carboplatin
[16] = Subject 706-001, with carboplatin

Sequence of CCR5 (P51681 whole entry): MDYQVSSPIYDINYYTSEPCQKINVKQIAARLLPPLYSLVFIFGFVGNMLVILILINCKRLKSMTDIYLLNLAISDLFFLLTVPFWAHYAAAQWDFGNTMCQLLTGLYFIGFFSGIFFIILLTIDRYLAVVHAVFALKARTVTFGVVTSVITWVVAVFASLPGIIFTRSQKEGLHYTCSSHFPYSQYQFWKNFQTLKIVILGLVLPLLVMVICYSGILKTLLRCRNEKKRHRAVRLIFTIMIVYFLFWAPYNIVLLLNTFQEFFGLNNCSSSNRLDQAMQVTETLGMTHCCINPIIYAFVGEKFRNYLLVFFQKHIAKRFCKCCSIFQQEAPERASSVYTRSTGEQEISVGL

B1: leronlimab: humanized monoclonal antibody to CCR5; humanized version of the murine mAb PA14 (antibody, chains of the INN, looked up, V domains shown)
VH: EVQLVESGGGLVKPGGSLRLSCAASGYTFSNYWIGWVRQAPGKGLEWIGDIYPGGNYIRNNEKFKDKTTLSADTSKNTAYLQMNSLKTEDTAVYYCGSSFGSNYVFAWFTYWGQGTLVTVSS
VL: DIVMTQSPLSLPVTPGEPASISCRSSQRLLSSYGHTYLHWYLQKPGQSPQLLIYEVSNRFSGVPDRFSGSGSGTDFTLKISRVEAEDVGVYYCSQSTHVPLTFGQGTKVEIK
With B1 the serious adverse events [1] was “no serious adverse events had been reported”, the “effect on CCL5 induced calcium responses” value [2] was “can block CCL5 induced calcium responses” and the “calcium response at calcium peak induce by CCL5” value ([2]; Fluo-4, control cells 1.23±0.10, P<0.001) was 0.54±0.13. For the same molecule, the “effect on CCL5 induced calcium responses” value ([2]; listed as Leronlimab) was “abrogated CCL5 induced Ca^+2 flux”, the CAML-Total [3, 8] was 1 and the CTC-Total [3, 8] was 0. For the same molecule, the EMT-Total [3, 8] was 2, the “Largest CAML, PD-L1” value [3, 8] was 47 μm and the “Number of Apoptotic CTC, PD-L1” value [3, 8] was 0. For the same molecule, the “Number of Apoptotic CTCs, CCR5” value [3, 8] was 0, the “Number of CAMLs, CCR5” value [3, 8] was 0 and the “Number of CAMLs, PD-L1” value [3, 8] was 1. The “Number of CTCs, CCR5” value [3, 8] was 0, the “Number of CTCs, PD-L1” value [3, 8] was 0 and the “Number of EMTs, CCR5” value [3, 8] was 1. For the same molecule, the “Number of EMTs, PD-L1” value [3, 8] was 1, the CAML-Total [3, 9] was 3 and the CTC-Total [3, 9] was 0. The EMT-Total [3, 9] was 0, the “Largest CAML, CCR5” value [3, 9] was 27 μm and the “Largest CAML, PD-L1” value [3, 9] was 69 μm. For the same molecule, the “Number of Apoptotic CTC, PD-L1” value [3, 9] was 0, the “Number of Apoptotic CTCs, CCR5” value [3, 9] was 0 and the “Number of CAMLs, CCR5” value [3, 9] was 1. The “Number of CAMLs, PD-L1” value [3, 9] was 2, the “Number of CTCs, CCR5” value [3, 9] was 0 and the “Number of CTCs, PD-L1” value [3, 9] was 0. The “Number of EMTs, CCR5” value [3, 9] was 0, the “Number of EMTs, PD-L1” value [3, 9] was 0 and the “Largest CAML, CCR5” value [3, 10] was 39 μm. The “Largest CAML, PD-L1” value [3, 10] was 30 μm, the “Number of Apoptotic CTC, PD-L1” value [3, 10] was 0 and the “Number of Apoptotic CTCs, CCR5” value [3, 10] was 0. The “Number of CAMLs, CCR5” value [3, 10] was 3, the “Number of CAMLs, PD-L1” value [3, 10] was 1 and the “Number of CTCs, CCR5” value [3, 10] was 0. The “Number of CTCs, PD-L1” value [3, 10] was 0, the “Number of EMTs, CCR5” value [3, 10] was 0 and the “Number of EMTs, PD-L1” value [3, 10] was 0. For the same molecule, the CAML-Total [3, 11] was 1, the CTC-Total [3, 11] was 0 and the EMT-Total [3, 11] was 0. The “Largest CAML, CCR5” value [3, 11] was 0 μm, the “Largest CAML, PD-L1” value [3, 11] was 31 μm and the “Number of Apoptotic CTC, PD-L1” value [3, 11] was 0. For the same molecule, the “Number of Apoptotic CTCs, CCR5” value [3, 11] was 0, the “Number of CAMLs, CCR5” value [3, 11] was 0 and the “Number of CAMLs, PD-L1” value [3, 11] was 1. The “Number of CTCs, CCR5” value [3, 11] was 0, the “Number of CTCs, PD-L1” value [3, 11] was 0 and the “Number of EMTs, CCR5” value [3, 11] was 0. For the same molecule, the “Number of EMTs, PD-L1” value [3, 11] was 0, the CAML-Total [3, 12] was 3 and the CTC-Total [3, 12] was 0. For the same molecule, the EMT-Total [3, 12] was 0, the “Largest CAML, CCR5” value [3, 12] was 33 μm and the “Largest CAML, PD-L1” value [3, 12] was 56 μm. The “Number of Apoptotic CTC, PD-L1” value [3, 12] was 0, the “Number of Apoptotic CTCs, CCR5” value [3, 12] was 0 and the “Number of CAMLs, CCR5” value [3, 12] was 1. For the same molecule, the “Number of CAMLs, PD-L1” value [3, 12] was 2, the “Number of CTCs, CCR5” value [3, 12] was 0 and the “Number of CTCs, PD-L1” value [3, 12] was 0. For the same molecule, the “Number of EMTs, CCR5” value [3, 12] was 0, the “Number of EMTs, PD-L1” value [3, 12] was 0 and the CAML-Total [3, 13] was 8. For the same molecule, the CTC-Total [3, 13] was 0, the EMT-Total [3, 13] was 0 and the “CCR5 expression on cancer-associated cells” value ([3]; first subject, after approximately 11 weeks of treatment) was “large reductions in CCR5 expression”. For the same molecule, the “circulating tumor cells (CTC) or putative metastatic tumor cells in the peripheral blood” value ([3]; first subject, following 16 weeks of treatment) was “no detectable circulating tumor cells (CTC) or putative metastatic tumor cells”, the “levels of CTC” value [3, 14] was “no detectable levels of CTC” and the “reduction in EMT cells” value [3, 14] was 70%. The CAML count ([3]; second subject, following at least two weeks of treatment, initial count 45) was 30, the “decrease of total CTC+EMT counts” value ([3]; third subject, first two weeks of treatment, with carboplatin) was 75% and the adverse events [4] was “without significant adverse events reported”. For the same molecule, the tumor volume [5] was “significant reduction in tumor volume”, the “breast cancer tumor metastasis to the lung” value [6] was “blocks human breast cancer xenograft metastasis in mice; also recorded: dramatically decreased breast cancer tumor metastasis to the lung” and the “decrease in size of target lesion” value [7, 15] was 20%. For the same molecule, the new lung nodules [7, 15] was “no new lung nodules found”, the “decrease in size of target lesion (as measured by tumor volume)” value [7, 16] was “greater than 20%” and the “new lymphadenopathy or metastatic disease on diagnostic CT chest, abdomen and pelvis” value [7, 16] was “No new lymphadenopathy or metastatic disease reported”. The “right hilar lymph node” value [7, 16] was “resolved” and the “maximum standardized uptake values (SUVs) of right lung metastasis” value ([7]; Subject 706-001, with carboplatin, previously 15.3) was 6.8.
